Tested on: Saccharomyces cerevisiae
Test: transcriptional activation domain activity (GFP:mCherry ratio, weighted mean of sorted bins, harmonized to initial dataset scale) (arbitrary fluorescence ratio units); higher = stronger transcriptional activation
Details: beta-estradiol 1 µM; induction time 4 h
Outline: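 For this assay, yeast diploids with a GFP reporter carried barcoded protein tiles at URA3, each fused to an estradiol-inducible synthetic transcription factor. Induction was a 1:5 dilution into SC with 1 uM beta-estradiol for 4 hours at 30 °C, followed by sorting into 8 bins by GFP:mCherry ratio and barcode sequencing. Tiles under 50 reads were dropped, and activation activity was calculated as the read-weighted mean of bin median fluorescence, averaged across barcodes and linearly mapped onto the initial dataset scale.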

| Sequence | transcriptional activation domain activity |
| --- | --- |
| MVRRLINLFLCRPCLLTFLCYLWVFNIFSSASDLYFLFLLSLFGFVFVMGWGS | 38900 |
| MVRSGILKCELLQNLSTVYPTIYLVLCCYSIVFFFNACLSFLVLFMHFAFLVK | 52800 |
| MVSCYIPLLIGFLGLVGPVLSRFFFLFSLFSWLIGRLVLYLILFLSSLCHGLG | 30300 |
| MVSFFFSLCFSSFSYLLFPHFLSFFLFFSLCCHFFPFVSTFPPILFFIMNVSF | 67100 |
| MVSFYYICSCAGSCWMLNARLHLWGLIFTVIFGDTVHVICLLFWFYFYRPPPF | 41200 |
| MVSILLFFLSSAFLLTYPYPLLNLALYLLLMFIFSTLYSLTYLLLGFFFFFLA | 58600 |
| MVSMQLSKLFIFSRVRRGGFFFCPCFSLVFLLFLFCIFFFHHFFSFHISFYLP | 41400 |
| MVSTRRQERDKEKKEKRKEEKEKEKGEGKTEKKKKKKSGDKKSKKGEGRTKEG | 21200 |
| MVSYLIGALDIHMYGIWFWPFWLFESWASWIGLRDVFYLFIFFPLFFSLYSTL | 49600 |
| MVTISTDWFGWFVYLRFSGHLGVNCFYFIIRFFLFWVAFQLHVCIFSLPLVSC | 51400 |
| MVTIWDFFLGGWGWAFYIICLFFFLSFYFLSFFFFSLLSSFFFFGYSPSAVWV | 29600 |
| MVTVGILHYLLIGNLLTNVLFGVYVQMAWKCSCIFYRKYQMGQVHSYHLFSFI | 80900 |
| MVVFGCRCNVMLYILFCNLRFLLRGAVCIQILTMFILWCAMTEIVLSVLPILS | 47300 |
| MVVFLFSFRVWVLLWICKISFINFVPMSTCRGLMVVRLRLNQTWGIRSLVPWL | 29600 |
| MVVFLYLVIYHWSKVNRVSFRCAAFCCIAHLIENVFFVIMVKVKGPSKFCAGI | 76900 |
| MVVILYFFFYIFIKNRLGLVRVIFLFLVYHIQLLVLFFFGPFLPLVLLLLLLL | 35900 |
| MVVIVLQIGVSLYKLLVLLLWYVEWILYLFLLVEDRLLYQNMLLFEAPTLVYT | 63300 |
| MVVIWGLDLKEMQWWKFKGSYMFNQTYHLRRTKMIVYQIAMIFMVCSESVGTA | 31600 |
| MVVLCPYNVLQKRERDAFLLALRRCLFAPINHPVYFSDVVFADIFTSYAKVLG | 44000 |
| MVVLTICQLHHWNAGWDFHLLFWVCLFYSVKKLYDLILWLNFILTSKDLVKSN | 40600 |
| MVVSLLIIRCHSTASSNRWLLLGYGLHFLIRFFYLITMLLITRLNFVLSFFAA | 81000 |

| Sequence | transcriptional activation domain activity |
| --- | --- |
| MVVVSCLSGAFLFFLFVHVVSGALFTYYSLLSLIFSLYHSILFVCWADLFFFF | 57100 |
| MVWFWFWLRYLFFFFFLFSKNTLIGLFLLLLLLLHLFLRSLPILLVCASRVFF | 53300 |
| MVWGCAFFISSQFLFPWLLWVFPLSLLSLGLSHTLELDSVFSLLLIFFTIPLF | 34500 |
| MVWIRSKSPIKWLYIWLYYVRRPRINVASYTTKWVTIESELVFLAENFLDDKC | 33300 |
| MVYCISFCLALFESLLYSIVADTNILIHYFLFFLLLFCQFVYFLNNTFFIFLS | 51800 |
| MVYMSSVNVWGLDIYYSRVSIYLFFFPSLFFLWAASMSLFPYYFLPSLFYIVL | 26500 |
| MVYQGGVTFLCNFYILFPFFPFFFCFCKVSFLFCFCIFLFFCSWDGGLFLFLF | 62700 |
| MWCTRWFLPLLLLPLPTAPPFFLALFLISLTLHSKPCFYCILLLTTLFLTSCY | 45300 |
| MWCTRWFLPLLLLPLPTAPPYFLLLFLFSLTMHAKPCFYCIVLLTTLFVSSCY | 47800 |
| MWCTRWVLPFLLLPAPTSPPYFVLIFLLSLVMHARPCIYCIFFLIMLFITSNY | 47000 |
| MWCTRWYIPLLLLPIPTAPPYFLILFLFSLTLHARPCFYCILLLLTLFLSSCY | 58500 |
| MWEVLWAFSFLAGDIFVFFLSLALYIYPNHLVSPLLPGCVKPPVGMYWFLVFQ | 44000 |
| MWFLHPLPFPLASSTWLHFVVLSFYIFFFLPFPSCALVLFWCWFFLLVRLLTS | 39400 |
| MWGILYSLQYHQNFPFVACFLSDLFEKIIHHHFFYFSLSSFSLFLIFHFWFFF | 52000 |
| MWGRWVGWSLIFLELYLDHLILQFIPPTRFIVTLFFFFSFLFIWYFCLLSLSL | 28800 |
| MWGVLCNWLKHNGMVFSVQCFTFDFLFSFPLSLFFPFFLFSFFLFFLYSFAII | 50100 |
| MWGWNGKEIHFSFTEVFLKFLIWLVHSFLRSFLGFSNGFFLTFPLVGFFFSFL | 54800 |
| MWHWLFYLFFSFFLQFLLFLFSFSSSFNFFYFCFPFLLFSVSFFCFCFWFLFF | 50000 |
| MWLFLLMFYIVLWLRKAGAFISSSFSSFSVLSFSYLFLCGYLPFSFLFLTFSL | 54200 |
| MWLIWLIWLLALLVDLFSFSVLFFFSLSLFLSFFWFFFFSFFQSFFPFLAVSF | 66900 |
| MWLLFYARACLSLLWFTSARVLFFSSFLTFSFLIIWLLGSFDIFRILVLFSFF | 87100 |

| Sequence | transcriptional activation domain activity |
| --- | --- |
| MWLLHFSFLRVLPLFLLMLRCLLLAICIVTYINGPTLVFSHPLITIYSLTLLA | 56200 |
| MWLVEVQLLHQSHSLLSHIICLFFLSPHLPSFVFSGALFVYSVMLVSLFFLYL | 37400 |
| MWLVKCTYILYIYIFGKWKVREVLELTRVFFFFFSFFFFLFFFPFFFFFFFFF | 59900 |
| MWLVVCIDGPVLSVLPRTILYLCVLLLLTLLASCSERSFAFARPLSSSCIFSY | 42600 |
| MWMSLLHFHTFTIFLTFFFFFFFFFCLPPFVSLLTLFLVEIFLSWREGFLPHP | 39400 |
| MWSFFFFLFFFGFCFLVFWPNLFFLFFFHDSCPFVLLLFLFHLFHLPVFPRSG | 40300 |
| MWSLCILLVGLLIWYIVFFSYPPPNRIYLFSPSLGVCLVSFFFFLWGLFGGVF | 53400 |
| MWTFGMIQLYYSPYWGDTRWFWLDYPKTLLSPTFKWYYLIQFAFWLQQLLLAL | 73400 |
| MWTQASVATLPTLPFTGISLSYFPCLFLLFSPDIFIFLFFLLFIYLFIFSFLL | 55900 |
| MWTSLGCYSCLLCLLLHVVYVPSLLVPSQHPFLSSCLGAVGLTFTWMICCFFP | 56500 |
| MWTVLVGFIRGFLLLLWHLAYPFHFFLYFQLILSSHRLEWLISLFVDAMTGIA | 33400 |
| MWVGELLGYYCTMALSKALGCKVRLLRAWAEMHNICGFYSRDSIPCRMYASRV | 61800 |
| MWVINRAFLEFYFIFCIVFTVHLVCFCFFWLIFLFCLLHASFLLCDFPFFFYY | 41100 |
| MWVLGRSWAVLSTFFLSLLRLFFCLLFLLGLDFWSGLLPFLCFFLLCSYCFSL | 56400 |
| MWVTQHCLLATQWALLCVPPFRGLLLLLLFLYVFKFLFGLRIFILYLVSMLVM | 46100 |
| MWWAFIFFFLLSFFLFLLFLGWLAGWQVCCWGFWFLVGFHFGWLGWFGCGITS | 32000 |
| MWWALCFFFFLFIFVILGFVGLLVCWFVGWLAGTFVGFSGSWFSFWVAWVVWV | 60500 |
| MWWRADGHYLNPLSQIFFSCEFWFFLLLFQMGDGFAFFFFLSIGLVTSFFFFF | 35400 |
| MWYFSRCTRWFLPLLLLPMPTAPPYFLLLFLLSFILHAKPCFYCVILITSLFI | 60200 |
| MYCACGQDGKSPFVMRCVLCFGFVFLFLFLLFFSSLLISLLFIFSHCSMLLPI | 23000 |
| MYCFIILYMYILLLFFSRSVYFSLFFFFFCLHFYSIFFFFICSLFIYLFIYLF | 63500 |

| Sequence | transcriptional activation domain activity |
| --- | --- |
| MYCMRYFAPLFLLPFPDAPPFFVVLSLISFFLHQKPCIYCVFLLLALFSSTCY | 61400 |
| MYCMRYFVPLFLLPFPDSPPIFVILFLISFFLHQKPCIYCTLLLFALFSSTCF | 48600 |
| MYCMRYFVPLLLLPFPDAPPVFVILFLISFFLHQKPCIYCTLLLIALFCSTCY | 72300 |
| MYCMRYFVPLLLLPFPDSPPIFVILFLISFFLHQKPCIYCTLLLFALFSSTCF | 57700 |
| MYCSLQTLLFRFFAYWQGMTFFGFLFCFHVLGSQNLFFGSCFVLLLMQLLCLF | 58900 |
| MYCVSFSHFYPPPLSFFHYGFDIFLFIFLIFFFCCPFLFAQVVVGYAICWYHT | 51300 |
| MYDACLCGRLGFFYLLLVFFLSSVFHSHLFFLPFFGLFYLLRYFFFNFSTFVA | 52700 |
| MYDFFLFLSFLPFPSPSLLCFLILFSFIYLLLFHFYIYIYICLFLSFYIHAFV | 10600 |
| MYECACFPFPFFLSFFFFLSSFSYGCPFCFVGYRFPLLPLLLSVFLFLGLCLM | 33800 |
| MYECLAECEFLARLYFFLLHCCVYCTIIVYIFFLLVNCYAGVVSRLLELQTLR | 41100 |
| MYELAFFFFFFLFRLFLSLFRGGCFWVQIFVFIPEYLVYSILFSFFFLLLFTF | 47500 |
| MYELIGQGVSFFCCYFACVCFALHFCFGPYFGLWLWHCIFKTFFFLLVFFPNY | 61200 |
| MYETNLFQWKLSIGFGFVLDYFIGLFLLDFFILDCIFYLLINSAICVFYSLSG | 58100 |
| MYFASYIFISFFSLFISIIHPFKIYYILLYTHHIIISIQLLLPFHFLTSIILS | 80300 |
| MYFAYFYLLPEMSSLSFFPFLSVYVFFIFFSSLICFFFFLSMGFLCLFTFLLV | 45200 |
| MYFCLDKLRRLACFLSLFFVSFFLFLCLTLFFALLFIISLSLLMYRCVLISLC | 14000 |
| MYFIILAFVWCFCSCFCFRCVAFWWPLSLSLCLSVGIYLLAFFFFFTTLVLVY | 26200 |
| MYFVYTYSGLAFFFFFSFFWCTSIYLNILLVLFYLALGFCKVYFLLLFYLPKT | 39900 |
| MYGHVWMGVLHCKLLLVGFLWVLFTLMPDMYIHGREGINSAYTIGHSFTIGFA | 47400 |
| MYGLVFLLPLFCSLLLFLFCFCCLSPRPTWGLFVSIELFLQARDGLVNWLLAF | 50100 |
